Experimental data as given in IntAct's records for PubMed 21763481.

B1: B9 domain-containing protein 2 (Mus musculus), Q3UK10 (parent)
chain: MAEVHVIGQIIGATGFSESSLFCKWGIHTGAAWKLLSGVREGQTQVDTPQIGDMAYWSHPIDLHFATKGLQGWPRLHLQVWSQDSFGRCQLAGYGFCHVPSSPGTHQLDCPTWRPLGSWREQLARAFVGGGPQLLHADTIYSGADRYRLHTAAGGTVHLGIGLLLRHFDRYGVEC
partner: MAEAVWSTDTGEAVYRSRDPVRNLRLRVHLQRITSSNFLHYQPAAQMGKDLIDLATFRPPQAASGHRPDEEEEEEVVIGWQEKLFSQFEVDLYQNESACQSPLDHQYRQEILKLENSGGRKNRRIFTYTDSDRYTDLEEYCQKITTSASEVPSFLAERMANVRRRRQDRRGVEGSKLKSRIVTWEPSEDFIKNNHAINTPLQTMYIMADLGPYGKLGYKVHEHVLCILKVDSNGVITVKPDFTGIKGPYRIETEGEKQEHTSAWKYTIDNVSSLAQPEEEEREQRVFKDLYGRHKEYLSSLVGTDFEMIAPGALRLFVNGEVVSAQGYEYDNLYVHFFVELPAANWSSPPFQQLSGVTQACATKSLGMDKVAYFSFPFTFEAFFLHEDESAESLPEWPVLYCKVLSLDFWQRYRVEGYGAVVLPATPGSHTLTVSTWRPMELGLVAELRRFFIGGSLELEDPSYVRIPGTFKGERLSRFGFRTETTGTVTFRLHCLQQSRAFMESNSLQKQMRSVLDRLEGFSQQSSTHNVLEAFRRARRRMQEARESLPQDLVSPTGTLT
B2: B9 domain-containing protein 2 (Mus musculus), Q3UK10 (parent)
chain: B1 chain
partner: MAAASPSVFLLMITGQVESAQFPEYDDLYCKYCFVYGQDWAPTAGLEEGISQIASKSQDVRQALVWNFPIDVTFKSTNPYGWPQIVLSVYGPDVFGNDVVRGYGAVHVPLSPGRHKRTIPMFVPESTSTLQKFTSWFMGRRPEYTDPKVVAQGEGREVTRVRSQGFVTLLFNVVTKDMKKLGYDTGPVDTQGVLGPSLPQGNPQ

Variants of: B1
Conditions: with mks1_mouse Mks1, Q5SW45

Row | Variant | effect of a mutation on the interaction
1 | S101R | disrupting interaction

Variants of: B2
Conditions: with b9d1_mouse B9d1, Q9R1S0

Row | Variant | effect of a mutation on the interaction
2 | S101R | with no effect
